The text below walks through data of patent publication US20260297136A1, “PEPTIDES WITH LIPOLYTIC, ANTI-LIPOGENIC, ANTIFIBROTIC AND ANTI-INFLAMMATORY ACTIVITY” (FUNDACIÓ HOSPITAL UNIVERSITARI VALL D'HEBRON - INSTITUT DE …, priority 2023, published 2026).

In assay [1] the test system is HepG2 cells. Nature of the assay: Hepatic lipogenic key enzymes in HepG2 cells in the presence of 30 mM fructose (2 h), Example 7. The assay is classed as cell-based, human. The following applies: SHBG 20 nM. The procedure:
FIG. 34. Effects of different peptides and SHBG in reducing hepatic lipogenic key enzymes in the presence of 30 mM fructose. Each bar within each group represents mRNA levels of a key hepatic lipogenic enzyme, from left to right: Acetyl-CoA Carboxylase (ACC), ATP Citrate Lyase (ACLY) and Fatty Acid Synthase (FAS), and a key transcription factor regulating several lipogenic enzymes such as PPARγ (PPARγ).
Cell culture reagents were from Life Technologies Inc (Invitrogen SA, Barcelona, Spain). HepG2 hepatoblastoma cells (cat. no. HB-8065; ATCC, LGC Standards SLU, Barcelona, Spain) were maintained in Dulbecco's modified Eagle medium (DMEM) supplemented with 10% fetal bovine serum and antibiotics.
• HepG2 cells were cultured for 5 day in the absence or presence of 30 mM fructose. Cells cultured in 30 mM fructose were daily treated with vehicle, Telmisartan, Semaglutide or EDL6D. • HepG2 cells were cultured for 24 h in the absence or presence of GP6 (40 μg/ml), GP10 (40 μg/ml), GP11 (40 μg/ml), GP12 (40 μg/ml), GP13 (40 μg/ml) or SHBG (20 nM). • HepG2 cells were cultured in the absence or presence of 30 mM fructose and treated for 2 h with vehicle or GP4 (40 μg/ml), GP6 (40 μg/ml), GP7 (40 μg/ml), GP8 (40 μg/ml), GP9 (40 μg/ml), GP10 (40 μg/ml), GP11 (40 μg/ml), GP12 (40 μg/ml), GP13 (40 μg/ml) or SHBG (20 nM).
Total RNA was extracted from HepG2 and LX-2 cells using TRIzol reagent (Invitrogen SA). Reverse transcription was performed at 42° C. for 50 minutes using […] of total RNA, 200 U of Superscript II, and an oligo-dT primer and reagents provided by Invitrogen. An aliquot of the reverse transcription product was amplified in a […] reaction using SYBRGreen (Invitrogen SA) with appropriate oligonucleotide primer pairs corresponding to human SHBG, ACC, FAS, ACLY, PPARG, and 18S and mouse ACC, FAS, ACLY, PPARG, Col1A1 and 18S. Results were analyzed using the 7000 Sequence Detection System program (Applied Biosystems, Thermo Fisher Scientific, Barcelona, Spain) (Shez-Lopez et al Endocrinology 2017).

The conditions of assay [2]: EP 3003351 A1; cited from earlier work.

B1: SHBG: sex hormone-binding globulin (SHBG) protein (protein, UniProt P04278 30-402, looked up)
Sex hormone-binding globulin: LRPVLPTQSAHDPPAVHLSNGPGQEPIAVMTFDLTKITKTSSSFEVRTWDPEGVIFYGDTNPKDDWFMLGLRDGRPEIQLHNHWAQLTVGAGPRLDDGRWHQVEVKMEGDSVLLEVDGEEVLRLRQVSGPLTSKRHPIMRIALGGLLFPASNLRLPLVPALDGCLRRDSWLDKQAEISASAPTSLRSCDVESNPGIFLPPGTQAEFNLRDIPQPHAEPWAFSLDLGLKQAAGSGHLLALGTPENPSWLSLHLQDQKVVLSSGSGPGLDLPLVLGLPLQLKLSMSRVVLSQGSKMKALALPPLGLAPLLNLWAKPQGRLFLGALPGEDSSTSFCLNGLWAQGQRLDVDQALNRSHEIWTHSCPQSPGNGTDASH
Regarding B1, in assay [1], the “fructose-induced expression of ACC” value is reported as “able to reduce”, the “fructose-induced expression of ACLY” value is “able to reduce”, the “fructose-induced expression of FAS” value is listed as “able to reduce” and the “fructose-induced expression of PPARγ” value is listed as “able to reduce”. The “lipolytic and anti-lipogenic activity” value in assay [2] was “has lipolytic and anti-lipogenic activity”.
